Here are results for 15 molecules from patent publication US20220119522A1 (DENALI THERAPEUTICS, published 2022).

Positions count from the first letter of the chain named. No end group written: not given here.

The chains are these.
T1: human TREM2 full length stalk region peptide (aa 129-172) (human, biotinylated (site not stated))
T1 construct: also called Human TREM2 peptide (aa 129-172); full-length TREM2 stalk peptide
T1 peptide: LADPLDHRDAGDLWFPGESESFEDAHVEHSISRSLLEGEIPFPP

T2: human TREM2 truncated stalk peptide (aa 149-163) (human, also: biotinylated (site not given here))
T2 construct: also called Human TREM2 peptide (aa 149-163); truncated stalk peptide containing the ADAM10/17 cleavage site
T2 peptide: SFEDAHVEHSISRSL

T3: mouse TREM2 full length stalk region peptide (aa 131-169) (mouse, UniProt Q99NH8 131-169, biotinylated (site not stated))
T3 peptide (looked up): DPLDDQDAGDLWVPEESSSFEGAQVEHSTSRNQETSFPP

T4: human TREM2 on the cell surface (human, UniProt Q9NZC2 19-230)
T4 construct: also called surface TREM2; TREM2 expressed in HEK293-H6 cells
T4 sequence: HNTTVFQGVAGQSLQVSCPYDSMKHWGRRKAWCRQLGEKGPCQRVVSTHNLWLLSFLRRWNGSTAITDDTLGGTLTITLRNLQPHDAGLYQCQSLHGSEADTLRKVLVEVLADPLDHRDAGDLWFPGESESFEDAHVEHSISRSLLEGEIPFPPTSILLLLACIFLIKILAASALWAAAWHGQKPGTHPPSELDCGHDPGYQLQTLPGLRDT

T5: His-tagged human TREM2 ECD (human, UniProt Q9NZC2 19-172)
T5 construct: Biacore and HDX say only recombinant human TREM2 (ECD); also called recombinant human TREM2; hTREM2
T5 sequence: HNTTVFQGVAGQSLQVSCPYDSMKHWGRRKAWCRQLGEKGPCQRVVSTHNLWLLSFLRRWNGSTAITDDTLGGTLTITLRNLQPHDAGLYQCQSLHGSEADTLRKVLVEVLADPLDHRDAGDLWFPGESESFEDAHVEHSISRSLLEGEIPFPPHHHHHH

B1: CL0020201 (antibody, V domains shown)
VH: EVQLQQSGPVLVKPGASVRMSCKPSGYTFTDYYMNWVKQSHGKSLEWIGSINPYTGGSSYNQNFRGKATLTVDKSSSTAYMELNSLTSEDSAVYYCARGSYYSNLGFAYWGQGTLVTVSA
VL: DVQLTQSPSFLTASPGETITINCRASKSISKYLAWYQEKPGKTNKLLISSGSTLQSGIPSRFSGSGSGTDFTLTISSLEPEDFAMYYCQQYSEYPFTFGSGTKLEIK
notes: also called Clone CL0020201
B2: CL0020308 (antibody, V domains shown)
VH: QVQLKQSGPSLVQPSQSLSITCTVSGFSLTTYGIHWVRQSPGKGLEWLGVIWTGGSTAFNAAFMSRLSITKDNSKSQVFFKMNSLQADDTAIYYCAKVGFHSATDYWGQGTSVTVSS
VL: DVLMTQTPLSLPVTLGDQASISCRSSQNLVHSNGNTYLEWYLQKPGQSPKLLIYKVSNRFSGVPDRFSGSGSGTDFTLKISRVEAEDLGLYYCFQGSHVPFTFGSGTKLEIK
notes: also called Clone CL0020308
B3: CL0020309 (antibody, V domains shown)
VH: B2 VH with T31S, I34V, H35Q, S56T, A58D, M64K, T90S, V98I, T104V
VL: B2 VL with T14S, L29I, S81N, V99I, K108Q
notes: also called Clone CL0020309
B4: CL0020123-1 (antibody, V domains shown)
VH: QVQLVQSGAEVKKPGASVKVSCKASGFSIEDFYIHWVRQAPGQGLEWMGWIDPENGDSKYAPKFQGRATITADTSTSTAYMELSSLRSEDTAVYYCHADHGNYGSTMDYWGQGTLVTVSS
VL: DIQMTQSPSSLSASVGDRVTITCHASQHINVWLSWYQQKPGKAPKLLIYKASNLHTGVPSRFSGSGSGTDFTLTISSLQPEDFATYYCQQGQTYPRTFGQGTKVEIK
notes: Humanized variant of CL0020123 (hVH NGDS/2 m, Vk graft); also called Clone CL0020123-1
B5: CL0020123-6 (antibody, V domains shown)
VH: B4 VH with N55Q, A68V
VL: B4 VL
notes: Humanized variant of CL0020123 (hVH QGDS/1 m, Vk graft); also called Clone CL0020123-6
B6: CL0020123-4 (antibody, V domains shown)
VH: B4 VH with D57E
VL: B4 VL
notes: Humanized variant of CL0020123 (hVH NGES/2 m, Vk graft); also called Clone CL0020123-4
B7: CL0020123-3 (antibody, V domains shown)
VH: B4 VH with N55Q
VL: B4 VL
notes: Humanized variant of CL0020123 (hVH QGDS/2 m, Vk graft); also called Clone CL0020123-3
B8: CL0020123-2 (antibody, V domains shown)
VH: B4 VH with A68V
VL: B4 VL
notes: Humanized variant of CL0020123 (hVH NGDS/1 m, Vk graft); also called Clone CL0020123-2
B9: CL0020123-8 (antibody, V domains shown)
VH: B4 VH with N55Q, D57E, A68V
VL: B4 VL
notes: Humanized variant of CL0020123 (hVH QGES/1 m, Vk graft); also called Clone CL0020123-8
B10: CL0020188-1 (antibody, V domains shown)
VH: EVQLVESGGGLVQPGGSLRLSCAASGFTFTDFYMSWVRQAPGKGLEWVSVIRNKANGYTAGYNPSVKGRFTISRDNSKNTLYLQMNSLRAEDTAVYYCARLTYGFDYWGQGTLVTVSS
VL: DIVMTQTPLSLPVTPGEPASISCQSSKSLLHSNGKTYLNWYLQKPGQSPQLLIYWMSTRASGVPDRFSGSGSGTDFTLKISRVEAEDVGVYYCQQFLEYPFTFGQGTKVEIK
notes: also called Clone CL0020188-1
B11: CL0020188-6 (antibody, V domains shown)
VH: B10 VH with A24G, L45P, V48L, G57A
VL: B10 VL
notes: Humanized variant of CL0020188 (hVH NA/3 m, hVL NG/graft); also called Clone CL0020188-6
B12: CL0020188-5 (antibody, V domains shown)
VH: B10 VH with G57A
VL: B10 VL
notes: Humanized variant of CL0020188 (hVH NA/graft, hVL NG/graft); also called Clone CL0020188-5
B13: CL0020188-3 (antibody, V domains shown)
VH: B10 VH
VL: B10 VL with N33T
notes: Humanized variant of CL0020188 (hVH NG/graft, hVL TG/graft); also called Clone CL0020188-3
B14: CL0020188-8 (antibody, V domains shown)
VH: B10 VH with A24G, L45P, V48L, G57A
VL: B10 VL with N33T
notes: Humanized variant of CL0020188 (hVH NA/3 m, hVL TG/graft); also called Clone CL0020188-8
B15: CL0020188-2 (antibody, V domains shown)
VH: B10 VH with A24G, L45P, V48L
VL: B10 VL
notes: Humanized variant of CL0020188 (hVH NG/3 m, hVL NG/graft); also called Clone CL0020188-2

The target of one experiment is T1, human TREM2 full length stalk region …. Put plainly: ELISA on biotinylated peptide captured by streptavidin; A450 normalised to isotype control. How it is done:
(§1) TREM2 antibodies were evaluated for binding to human and mouse TREM2 stalk region peptides. […] Antibody binding to TREM2 stalk peptides was detected using standard sandwich ELISA. Briefly, a 96-well half-area ELISA plate was coated with streptavidin overnight at 4° C. The following day, biotinylated TREM2 stalk peptides diluted in 1% BSA/PBS were added to the plate and incubated for 1 hour. Antibodies diluted in 1% BSA/PBS were then added and incubated for 1 hour. Antibodies bound to peptide were detected with anti-human kappa-HRP secondary antibody (Bethyl Laboratories, Inc.) diluted in 1% BSA/PBS. Plates were assayed by reaction with a detection reagent (One-step TMB Ultra, Thermo) and measurement of absorbance at 450 nm (A450) by standard spectrophotometry instrumentation (BioTek®). Data are shown as normalized values (fold over background where background=isotype control).
For B1, the “fold over background (A450)” value was determined as 14 fold.
Regarding B2, the “fold over background (A450)” value came out at 11 fold.
Turning to B3, the “fold over background (A450)” value amounted to 11 fold.

The target in a further experiment is T2, human TREM2 truncated stalk peptide (aa …). Described as above. How it is done: as §1
For the molecule B1, the “fold over background (A450)” value was 1.7 fold.

A further experiment concerns the target T3, mouse TREM2 full length stalk region …. The description is as above. How it is done:
as §1
For B1, the “fold over background (A450)” value was 5.4 fold.
B2: the “fold over background (A450)” value was determined as 7.9 fold.
On to B3, for which the “fold over background (A450)” value is 6.6 fold.

A further experiment has as its target T4, human TREM2 on the cell surface. Put plainly: cell binding, human macrophages, dose titration.
On to B2, for which the EC50 stood at 0.6 nM.
The molecule B3 came in with an EC50 of 0.7 nM.

A further experiment deals with T5, His-tagged human TREM2 ECD. Description: SPR (Biacore). How it is done: (§2) Surface plasmon resonance (Biacore™ 8K instrument) was used to measure anti-TREM2 antibody affinities for human and cynomolgus TREM2 ECD. Anti-TREM2 antibodies were captured using Human Fab Capture Kit (GE Healthcare Life Sciences, Catalog No. 28958325) on a Biacore Series S CM5 sensor chip (GE Healthcare Life Sciences, Catalog No. 29149604). Serial 3-fold dilutions of recombinant human or cynomolgus TREM2 were injected at a flow rate of 30 μL/min. Antibody binding was monitored for 300 seconds, followed by monitoring of antibody dissociation for 600+seconds in HBS-EP+ running buffer (GE Healthcare Life Sciences, Catalog No. BR100669). The binding response was corrected by subtracting the RU value from a blank flow cell. A 1:1 Languir model of simultaneous fitting of kₒₙ and koff was used for kinetics analysis.
(§3) Sequence optimization was conducted by searching within CDR sequences for residues that are susceptible to chemical modification (e.g., asparagine deamidation motifs (NG), aspartic acid isomerization motifs (DS), and potential oxidation residues (tryptophan (W) and methionine (M)) and making amino acid substitutions with conservative and germline residues to remove such sequence liabilities. Humanized and sequence-optimized variants of anti-TREM2 antibodies were then analyzed for binding kinetics using Biacore and dose-titrated cell binding to HEK293-H6 cells (see, Example 1 for representative protocols).
B4 came in with a Kd of 0.14 nM.
Molecule B5 came in with a Kd of 0.32 nM.
The same measure, in the same setting: the value for B6 was 0.17 nM; that for B7 was 0.4 nM.
In turn, B8 returned a dissociation constant (Kd) of 0.18 nM.
The same measure, in the same setting: the value for B9 was 0.39 nM; that for B10 was 2.3 nM; that for B11 was 4 nM.
Regarding B12, the Kd came to 5.1 nM.
On the same count and under the same terms, with B13 the figure was 6.8 nM; with B14, 7.3 nM.
In the case of B15, binding was characterised by a dissociation constant (Kd) of 3.4 nM.

A further experiment addresses T4, human TREM2 on the cell surface. Description: cell-based or functional assay.
For the molecule B1, the “NFAT EC50 (nM), plate coated mAb” value is 81.7 nM; the “Survival EC50 (nM), plate coated mAb, human macrophages” value (from here on “Survival EC50 (nM), plate coated mAb”) is 6.6 nM; the “pSyk activation (human macrophages) EC50 (nM)” value was 9.5 nM.
As to B2, the “NFAT EC50 (nM), plate coated mAb” value stood at 51.9 nM; the “Survival EC50 (nM), plate coated mAb” value came to 8.9 nM; the “pSyk activation (HEK293-H6) EC50 (nM)” value came to 33.4 nM.
Turning to B3, the “Survival EC50 (nM), plate coated mAb” value is 2.69 nM and the “pSyk activation (HEK293-H6) EC50 (nM)” value came to 40.6 nM.

The target of a further experiment is T6, recombinant cynomolgus TREM2 ECD (cynomolgus).
T6 construct: extracellular domain; also called cyno TREM2
Description: SPR (Biacore), antibody captured via anti-human Fab, recombinant TREM2 ECD injected, 1:1 fit. How it is done: as §2
Take B1: the Kd was 13.4 nM.
On to B2, for which the Kd is 2.28 nM.
On the same count and under the same terms, with B3 the figure was 5.33 nM.

In the next experiment the target is T5, His-tagged human TREM2 ECD. The experiment is described as above. How it is done: as §2
Take B1: the Kd stood at 0.54 nM.
As to B2, the Kd was found to be 2.31 nM.
Turning to B3, the Kd is 5.31 nM.

The target of a further experiment is T4, human TREM2 on the cell surface. Put plainly: flow cytometry, dose-titrated binding to HEK293-H6 cells. How it is done:
After incubation, the cells were centrifuged and washed in FACS buffer (PBS+0.5% BSA) twice. Mixed cells were resuspended in FACS buffer with human Trustain FcX solution (Biolegend, Catalog No. 422302) at a density of 10⁶/mL per cell line. The mixed cell lines were seeded at 200,000 cells per well in a 96-well round-bottom plate and incubated for 20 minutes at room temperature. After incubation, the cells were centrifuged and incubated with anti-TREM2 antibodies of about 0-200 nM dose titration for 45 minutes on ice. After incubation, the cells were centrifuged and washed with FACS buffer three times. […] After incubation, the cells were washed with FACS buffer three times, resuspended in 100 μL of FACS buffer, and analyzed by flow cytometry (BD FACSCanto II, San Jose, Calif.), for which 30,000 events were obtained for each sample. Mean fluorescence intensity per cells were calculated by FlowJo software and used for generating dose response binding curve.
as §3
B4 registered an EC50 of 0.25 nM.
B5 yielded an EC50 of 0.29 nM.
In turn, B6 gave an EC50 of 0.17 nM.
Turning to B7, it took 0.24 nM to reach a half-maximal effect (EC50).
The same measure, in the same setting: the value for B8 was 0.23 nM; that for B9 was 0.38 nM; that for B10 was 0.42 nM.
As to B11, the EC50 stood at 0.31 nM.
With B12, the EC50 was 0.45 nM.
On the same count and under the same terms, the value for B13 was 0.64 nM.
In turn, B14 displayed an EC50 of 0.51 nM.
Take B15: the EC50 is 0.26 nM. This EC50 lies about 2-fold lower than the previous one.
